This is an account of results in patent US20250002574A1 (SUNSHINE LAKE PHARMA, published 2025).

In assay [1] the target is T1, recombinant human protein antigen hu-IL-11-His tag (human, UniProt P20809 22-199).
T1 construct: also called IL-11-His protein; not shown: His tag
T1 sequence (looked up): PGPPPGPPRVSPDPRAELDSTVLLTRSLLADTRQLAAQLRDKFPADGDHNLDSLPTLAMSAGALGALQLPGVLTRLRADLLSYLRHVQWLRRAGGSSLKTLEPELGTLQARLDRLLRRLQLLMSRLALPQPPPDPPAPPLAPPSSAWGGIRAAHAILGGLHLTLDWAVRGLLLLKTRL
As to the kind of experiment: flow cytometry competition: IL-11-His plus antibody on membrane-IL-11R CHO cells. As to the method:
The inventors constructed a cell line (membrane-IL-11R CHO) that stably expressing IL-11R. […] Then 1.5*10\hat{ }5 membrane-IL-11R CHO cells (100 μL/well) were added and incubated for 1 h at room temperature. […] Then, the plate was incubated at 4° C. for 1 h, centrifuged at 1500 rpm for 5 min, washed three times with PBS, and resuspended cells in 180 μl PBS, and detected by flow cytometry.

The target of assay [2] is T2, IL-11 (UniProt P20809 22-199, limits assumed).
T2 construct: also called IL-11 protein; IL-11 antigen
T2 sequence (looked up): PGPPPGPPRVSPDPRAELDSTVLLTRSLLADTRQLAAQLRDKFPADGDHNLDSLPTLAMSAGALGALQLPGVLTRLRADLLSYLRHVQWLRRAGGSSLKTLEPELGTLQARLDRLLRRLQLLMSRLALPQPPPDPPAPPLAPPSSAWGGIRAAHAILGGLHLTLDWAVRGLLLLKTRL
In words: SPR Biacore T200, antibody captured, IL-11 6.25-400 nM. As for the experimental part:
The measure method included the following steps of capturing the full-length humanized antibody at a flow rate of 10 μL/min. […] The binding time was 180 s, and the dissociation time was 600 s. Finally, the chip was regenerated with 10 mM glycine buffer.

Assay [3] deals with T2, IL-11. In words: ELISA on IL-11, monoclonal hybridoma antibody.
In assay [4] the target is T2, IL-11. In words: flow, IL-11 + antibody on IL-11R cells; lower = more blocking.
Assay [5] addresses T2, IL-11. In words: BLI (Fortebio), antibody on AHC sensor, IL-11 3.91-125 nM. As to the method: (§1) The determination method consisted of the following steps: the humanized antibody was captured by an AHC sensor. […] Finally, the sensor was regenerated with 10 mM glycine (pH 1.7) buffer.
Assay [6] addresses T3, IL-11 stably expressed on CHO cells (membrane-IL-11 CHO) (UniProt P20809 22-199).
T3 construct: whole, on cells
T3 sequence (looked up): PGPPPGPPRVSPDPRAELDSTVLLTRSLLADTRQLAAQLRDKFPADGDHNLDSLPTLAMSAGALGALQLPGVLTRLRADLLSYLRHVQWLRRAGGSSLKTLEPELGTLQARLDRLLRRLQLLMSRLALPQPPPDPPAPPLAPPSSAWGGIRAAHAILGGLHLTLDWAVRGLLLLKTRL
As to the kind of experiment: flow cytometry on membrane-IL-11 CHO cells, detection with goat-anti-Fc-FITC. As to the method: The cells were washed 3 times with PBS, and then the flow secondary antibody Goat-anti-Fc-FITC (Abcam, ab98529) was added and detected by flow cytometry. The results were plotted as S-curves in FIG. 11.

Assay [7] addresses T2, IL-11. In words: BLI (Fortebio), antibody on AHC sensor, IL-11 as analyte. As to the method: as §1

B1: full-length chimeric antibody constructed by 5-20E11-5F2 (Example 15) (antibody, human IgG1, kappa, V domains shown)
VH: QVQLQQSGAELVRPGTSAKISCKASDYTFTNYWLGWLKQRPGHGLEWIGHIYPGGGYTNYNEKFKGKATLTADTSSSTAYMQLSSLTSEDSAVYFCARVRSGNDALDFWGQGTSVTVSS
VL: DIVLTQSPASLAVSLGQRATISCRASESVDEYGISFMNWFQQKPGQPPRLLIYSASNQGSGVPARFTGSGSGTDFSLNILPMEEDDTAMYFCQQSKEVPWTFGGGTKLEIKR
notes: also called CPD-1; VH+VL
As to B1, the EC50 in assay [1] stood at 7.54 µg/mL. In the assay with IL-11 [2], the affinity, expressed as Kd, was 6.41 nM; the koff was 0.000433 s⁻¹; the kon was 67600 M⁻¹ s⁻¹.

B2: 3-9E1-3A2 (antibody, human IgG1, kappa, V domains shown)
VH: QIQLVQSGPELKKPGETVNISCRASGDTFTNYAVNWVKQAPGKGLKWMGWIDTYTGDPTYADDLKGRFAFSLETSATTAYLQINNLKNEDTATYFCAGDTWFAYWGQGTLVTVSA
VL: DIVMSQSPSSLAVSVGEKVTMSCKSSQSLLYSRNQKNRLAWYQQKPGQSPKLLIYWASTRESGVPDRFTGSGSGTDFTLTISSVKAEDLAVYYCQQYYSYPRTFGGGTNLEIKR
B2: the OD450 with IL-11 [3] was 1.54 OD450. The “FITC Mean” value with IL-11 [4] amounted to 9070 mean fluorescence.

B3: MIL-11 mab-02 (antibody, IgG1, V domains shown)
VH: QVQLVQSGAEVKKPGASVKVSCKASDYTFTNYWLGWVRQAPGQGLEWMGHIYPGGGYTNYNEKFKGRVTMTRDTSTSTVYMELSSLRSEDTAVYYCARVSSGNDALDFWGQGTLVTVSS
VL: EIVLTQSPATLSLSPGERATLSCRASESVDEYGISFMNWFQQKPGQAPRLLIYSASNQGSGIPARFSGSGSGTDFTLTISSLEPEDFAVYFCQQSKELPWTFGGGTKLEIK
notes: also called 2E2 full-length antibody
In the assay with IL-11 [5], B3 displayed a Kd of 0.242 nM, a koff of 0.00013 s⁻¹ and a kon of 535000 M⁻¹ s⁻¹. Moreover, the concentration for a half-maximal effect (EC50 (read off the curve)) in assay [6] is roughly 2 µg/mL. Moreover, the “fold increase of affinity against the humanized antibody VH1+VL3” value with IL-11 [7] was determined as 10 fold.

B4: VH1+VL3 full-length humanized antibody (antibody, human IgG1, kappa, V domains shown)
VH: QVQLVQSGAEVKKPGASVKVSCKASDYTFTNYWLGWVRQAPGQGLEWMGHIYPGGGYTNYNEKFKGRVTMTRDTSTSTVYMELSSLRSEDTAVYYCARVRSGNDALDFWGQGTLVTVSS
VL: EIVLTQSPATLSLSPGERATLSCRASESVDEYGISFMNWFQQKPGQAPRLLIYSASNQGSGIPARFSGSGSGTDFTLTISSLEPEDFAVYFCQQSKEVPWTFGGGTKLEIKR
notes: IgG form, IgG1 Fc; also called VH1+VL3 mAb; CPD-2
On to B4, for which the EC50 in assay [1] is 10.5 µg/mL. In the assay with IL-11 [5], this molecule displayed a Kd of 2.84 nM, a koff of 0.000609 s⁻¹ and a kon of 214000 M⁻¹ s⁻¹. Besides, the “EC50 (read off the curve)” value in assay [6] is roughly 2 µg/mL. Besides, in the assay with IL-11 [2], the Kd was 9.03 nM, the koff amounted to 0.000474 s⁻¹ and the association rate constant (kon) was found to be 52600 M⁻¹ s⁻¹.

B5: VH1+VL2 full-length humanized antibody (antibody, human IgG1, kappa, V domains shown)
VH: QVQLVQSGAEVKKPGASVKVSCKASDYTFTNYWLGWVRQAPGQGLEWMGHIYPGGGYTNYNEKFKGRVTMTRDTSTSTVYMELSSLRSEDTAVYYCARVRSGNDALDFWGQGTLVTVSS
VL: EIVLTQSPATLSLSPGERATLSCRASESVDEYGISFMNWYQQKPGQAPRLLIYSASNQGSGIPARFSGSGSGTDFTLTISSLEPEDFAVYFCQQSKEVPWTFGGGTKLEIKR
notes: IgG form, IgG1 Fc
For the molecule B5, the EC50 in assay [1] is 11.6 µg/mL. Also, in the assay with IL-11 [2], binding was put at a Kd of 12 nM, the koff amounted to 0.000597 s⁻¹ and the kon stood at 49800 M⁻¹ s⁻¹.

B6: MIL-11 mab-01 (antibody, IgG1, V domains shown)
VH: QVQLVQSGAEVKKPGASVKVSCKASDYTFTNYWLGWVRQAPGQGLEWMGHIYPGGGYTNYNEKFKGRVTMTRDTSTSTVYMELSSLRSEDTAVYYCARVSSGNDALDLWGQGTLVTVSS
VL: EIVLTQSPATLSLSPGERATLSCRASESVDEYGISFMNWFQQKPGQAPRLLIYSGSNEGSGIPARFSGSGSGTDFTLTISSLEPEDFAVYFCNQSKEVPWTFGGGTKLEIK
notes: also called 1E12 full-length antibody
Regarding B6, in the assay with IL-11 [5], the Kd was 1.17 nM, the koff was 0.000584 s⁻¹ and the kon came out at 501000 M⁻¹ s⁻¹. For the same molecule, the “EC50 (read off the curve)” value in assay [6] is roughly 3 µg/mL.

B7: VH1+VL4 full-length humanized antibody (antibody, human IgG1, kappa, V domains shown)
VH: QVQLVQSGAEVKKPGASVKVSCKASDYTFTNYWLGWVRQAPGQGLEWMGHIYPGGGYTNYNEKFKGRVTMTRDTSTSTVYMELSSLRSEDTAVYYCARVRSGNDALDFWGQGTLVTVSS
VL: EIVLTQSPATLSLSPGERATLSCRASESVDEYGISFMNWFQQKPGQAPRLLIYSASNQGSGIPARFSGSGSGTDFTLTISSLEPEDFAMYFCQQSKEVPWTFGGGTKLEIKR
notes: IgG form, IgG1 Fc
For B7, the EC50 in assay [1] worked out at 12.5 µg/mL. Besides, in the assay with IL-11 [2], the Kd stood at 10 nM, the koff turned out to be 0.000545 s⁻¹ and the kon stood at 54300 M⁻¹ s⁻¹.

B8: MIL-11 mab-03 (antibody, IgG1, V domains shown)
VH: QVQLVQSGAEVKKPGASVKVSCKASDYTFTNYWLGWVRQAPGQGLEWMGHIYPGGGYTNYNEKFKGRVTMTRDTSTSTVYMELSSLRSEDTAVYYCARVSSGNDALDFWGQGTLVTVSS
VL: EIVLTQSPATLSLSPGERATLSCRASESVDEYGISFMNWFQQKPGQAPRLLIYSASNQASGIPARFSGSGSGTDFTLTISSLEPEDFAVYFCQQSKELPWTFGGGTKLEIK
notes: also called 1F12 full-length antibody
With B8, in the assay with IL-11 [5], the Kd is 0.262 nM, the koff came out at 0.000152 s⁻¹ and the kon stood at 580000 M⁻¹ s⁻¹. Further, the “EC50 (read off the curve)” value in assay [6] was roughly 2 µg/mL. Besides, the “fold increase of affinity against the humanized antibody VH1+VL3” value in the assay with IL-11 [7] amounted to 10 fold.

B9: 3-7C9-1A6 (antibody, human IgG1, kappa, V domains shown)
VH: QVQLKQSGPGLVQPSQSLSITCTVSGFSLTNYGVHWVRQSPGKGLEWLGAIWRGGSTDYNAAFMSRLSITKDNSKSQVFFKMNSLQPDDTAIYYCAKNLYGPAAMDYWGQGTSVTVSS
VL: DIQMNQSPSSLSASLGDTITITCHANQNIYVWLSWYQQKPGNIPKLLIYEASNLHTGVPSRFSGSGSGTGFTLTISSLQPEDIATYYCQQGQSYPYTFGGGTKLEIKR
Molecule B9 showed an OD450 in the assay with IL-11 [3] of 1.6 OD450. For the same molecule, the “FITC Mean” value with IL-11 [4] turned out to be 3150 mean fluorescence.

B10: 3-15D5-3A6 (antibody, human IgG1, kappa, V domains shown)
VH: QVTLKESGPGILQPSQTLSLTCSFSGFSLSSSGMSVGWIRQPSGKGLEWLAHIWWSDDKSYNPALKSRLTISKDTSNNQVFLKIASVVTADTATYYCAREGSLGYGLDYWGQGTTLTVSS
VL: DVLMTQTPLSLPVSLGDQASISCRSSQSIVHTDGNTYLEWYLQKPGQSPKLLIYKVSNRFSGVPDRFSGSGSGTDFTLKISRVEAEDLGVYYCFQGSHVPWTFGGGTKLEIKR
B10 returned an OD450 in the assay with IL-11 [3] of 1.69 OD450. Besides, the “FITC Mean” value in the assay with IL-11 [4] came out at 10900 mean fluorescence.

B11: 3-2B5-3D2 (antibody, human IgG1, kappa, V domains shown)
VH: QVQLKQSGPGLVLPSQSLSITCTVSGFSLTSYGVHWFRQSPGTGLEWLGVIWSGGITDYNATFIPRLSISKDNSKSQVFFKMNSLQADDTAIYYCARNFDGYYYSIDYWGQGTSVTVSS
VL: DIQMTQTTSSLSASLGDRVTISCRASQDISNSLNWYQQKPDGTVKLLIYYTSRLHSGVPSRFTGSGSGTDYSLTISNLEQEDIATYFCQQGNTLPLTFGAGTKLELKR
Molecule B11 gave an OD450 with IL-11 [3] of 1.61 OD450. Moreover, the “FITC Mean” value with IL-11 [4] was determined as 15300 mean fluorescence.

B12: 3-15D5-6A1 (antibody, human IgG1, kappa, V domains shown)
VH: EVKLLESGGGLVQPGGSLKLSCAASGFDFRRYWMSWVRQAPGKGLEWIGQINPDSSMINYTPSLKDKFIISRDNAKNTLYLQMSEVRSEDTALYYCATYGHHATDSWGQGTSVTVSS
VL: DIVLTQSPASLAVSLGQRATISCRASESVDSYGNSFMHWYQQKPGQPPKLLIYRASNLESGIPARFSGSGSRTDFTLTINPVEADDVATYYCQQSNEDPFTFGSGTKLEIKR
As to B12, the OD450 in the assay with IL-11 [3] was 1.51 OD450. Also, the “FITC Mean” value with IL-11 [4] turned out to be 13600 mean fluorescence.
